Measurements from US8183340B2, “GLP-1 pegylated compounds” (Eli Lilly and Company, priority 2005, dated 2012).
Where no end group is shown, it is not given here. PEG = not defined here

How the values were obtained:
human GLP-1 receptor = molecular target: T1, human GLP-1 receptor (Homo sapiens, UniProt P43220); assay: In vitro activity assay, CRE-Luciferase in HEK-293 cells stably expressing the human GLP-1 receptor; type: cell-based; settings: 5 hours incubation
T1 construct: expressed in transfected cells
T1 sequence (P43220 24-463): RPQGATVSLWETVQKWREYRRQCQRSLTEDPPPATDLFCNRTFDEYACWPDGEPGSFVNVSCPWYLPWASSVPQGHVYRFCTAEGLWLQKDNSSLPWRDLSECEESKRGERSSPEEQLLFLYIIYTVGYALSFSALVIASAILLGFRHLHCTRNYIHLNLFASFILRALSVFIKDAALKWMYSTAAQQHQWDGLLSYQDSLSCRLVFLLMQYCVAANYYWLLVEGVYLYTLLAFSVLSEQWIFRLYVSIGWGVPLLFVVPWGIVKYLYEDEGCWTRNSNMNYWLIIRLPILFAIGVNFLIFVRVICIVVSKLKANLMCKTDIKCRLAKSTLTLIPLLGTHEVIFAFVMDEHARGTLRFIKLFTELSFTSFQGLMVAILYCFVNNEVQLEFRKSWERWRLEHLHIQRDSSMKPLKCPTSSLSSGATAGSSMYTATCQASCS
Description: “In vitro potency” as used herein, is the measure of the ability of a peptide to activate the GLP-1 receptor in a cell-based assay. In vitro potency is expressed as the “EC50” which is the effective concentration of compound that results in 50% activity in a single dose-response experiment. For the purposes of the present invention, in vitro potency is determined using a […] assay that employs HEK-293 cells that stably express the human GLP-1 receptor. These HEK-293 cells have stably integrated a DNA vector having a cAMP response element (CRE) driving expression of the luciferase gene. The interaction of a GLP-1 compound or a PEGylated GLP-1 compound with the receptor initiates a signal that results in activation of the cAMP response element and subsequent expression of luciferase. The EC50 values for the PEGylated GLP-1 compounds listed in Example 3 were determined using the luciferase assay described above. Relative in vitro potency values may be established by running Val8-GLP-1(7-37)OH or native GLP-1 as a control and assigning the control a reference value of 100%.
HEK-293 cells stably expressing the human GLP-1 receptor, using a CRE-Luciferase system, are seeded at 30,000 cells/well/80 μl low serum DMEM F12 medium into 96 well plates. […] Plates are placed in a Tri-lux luminometer and light output resulting from luciferase expression is calculated.

[1] = Pharmacokinetic analysis after IV or SC administration to male SD rats (plasma, N-terminal specific radioimmunoassay); type: in vivo; settings: for AUC0-last / CL/F (total body clearance as a function of bioavailability) / Cmax (maximum observed plasma concentration) / Tmax (time of maximum observed plasma concentration) / t1/2 (elimination half-life): mean
Description: A PEGylated GLP-1 compound of Formula I, wherein Xaa8 is Val; Xaa22 is Glu; Xaa33 is Ile; and Xaa46 is Cys-NH2 is administered by intravenous (IV) or subcutaneous (SC) routes at a dose of 0.1 mg/kg to male SD rats. The animals (3 rats per group) are bled at various times between 0 and 192 hours after dosing. Plasma is collected from each sample and analyzed by N-terminal specific radioimmunoassay. Pharmacokinetic parameters are calculated using noncompartmental methods (WinNonlin Pro). By IV administration, the PEGylated GLP-1 analog has an elimination half-life of approximately 1.2 days while by SC administration the PEGylated GLP-1 analog has an elimination half-life of approximately 1.1 days. […] Prolonged elimination half-life, slow clearance and subcutaneous bioavailability (approximately 30%) are observed for the compound. Representative data are shown below in Table 1

[2] = Pharmacokinetic analysis after SC administration to male cynomolgus monkeys (serum, N-terminal specific radioimmunoassay); type: in vivo; settings: 0.01 mg/kg, mean
Description: A PEGylated GLP-1 compound of Formula I, wherein Xaa8 is Val; Xaa22 is Glu; Xaa33 is Ile; and Xaa46 is Cys-NH2 is administered by subcutaneous (SC) route at a dose of 0.01 mg/kg to male cynomolgus monkeys. The animals are bled at various times between 0 and 168 hours after dosing. Serum is collected from each sample and analyzed by N-terminal specific radioimmunoassay. Pharmacokinetic parameters are calculated using noncompartmental methods (WinNonlin Pro). Representative data are shown below in Table 2.

Insulin = assay: Pharmacodynamic analysis: stepped intravenous glucose infusion, insulin levels by immunoassay; type: in vivo, male cynomolgus monkeys; settings: for Insulin AUC, AUClast: stepped IV glucose infusion, mean
Description: A PEGylated GLP-1 compound of Formula I, wherein Xaa8 is Val; Xaa22 is Glu; Xaa33 is Ile; and Xaa46 is Cys-NH2 is administered by subcutaneous (SC) route at a dose of 0.01 mg/kg to male cynomolgus monkeys. A stepped intravenous glucose infusion is conducted immediately after SC administration of vehicle control (phosphate buffered saline) and 1, 5, and 7 days after SC administration of 0.01 mg/kg PEGylated GLP-1 analog. Stepped intravenous glucose infusion procedures are conducted in sedated monkeys after a 16-hour fast. Blood samples are drawn at 10 minutes prior to start of glucose infusion and immediately prior to start of glucose infusion to define baseline. A stepped infusion of glucose (20% dextrose) is then initiated at a rate of 10 mg/kg/min for 20 minutes followed by an infusion of 25 mg/kg/min for an additional 20 minutes. Blood samples are taken at 10-minute intervals throughout the infusion period. Insulin levels are determined by immunoassay. […] Representative data are shown below in Table 3.

PEGylated GLP-1 compound of Formula I, wherein Xaa8 is Val; Xaa22 is Glu; Xaa33 is Ile; and Xaa46 is Cys-NH2: Formula I (SEQ ID NO: 1) peptide, one PEG molecule covalently attached to Cys45 and one to Cys46-NH2 (HVEGTFTSDVSSYLEEQAAKEFIAWLIKGGPSSGAPPPC(PEG)C(PEG)-NH2; reading uncertain)
EC50 (human GLP-1 receptor): 0.36 ± 0.04 nM
adverse clinical observations ([1]; IV or SC administration of 0.1 mg/kg): No adverse clinical observations
elimination half-life ([1]; IV, 0.1 mg/kg): approximately 1.2 days
AUC0-last ([1]; IV, 0.1 mg/kg): 52292 ng·h/mL
CL/F (total body clearance as a function of bioavailability) ([1]; IV, 0.1 mg/kg): 1.9 mL/h/kg
Cmax (maximum observed plasma concentration) ([1]; IV, 0.1 mg/kg): 2020 ng/mL
Tmax (time of maximum observed plasma concentration) ([1]; IV, 0.1 mg/kg): 0.08 h
t1/2 (elimination half-life) ([1]; IV, 0.1 mg/kg): 25.8 h
elimination half-life ([1]; SC, 0.1 mg/kg): approximately 1.1 days
subcutaneous bioavailability ([1]; SC, 0.1 mg/kg): approximately 30%
AUC0-last ([1]; SC, 0.1 mg/kg): 15423 ng·h/mL
CL/F (total body clearance as a function of bioavailability) ([1]; SC, 0.1 mg/kg): 6.5 mL/h/kg
Cmax (maximum observed plasma concentration) ([1]; SC, 0.1 mg/kg): 191 ng/mL
Tmax (time of maximum observed plasma concentration) ([1]; SC, 0.1 mg/kg): 24.0 h
t1/2 (elimination half-life) ([1]; SC, 0.1 mg/kg): 28.3 h
AUC0-last [2]: 7464.78 ng·h/mL
CL/F (total body clearance as a function of bioavailability) [2]: 1.06 mL/h/kg
Cmax (maximum observed serum concentration) [2]: 69.49 ng/mL
Tmax (time of maximum observed serum concentration) [2]: 48 h
t1/2 (elimination half-life estimate) [2]: 75.69 h
Insulin AUC, AUClast (Insulin; Day 1 after SC 0.01 mg/kg): 30862 pM·min
Insulin AUC, AUClast (Insulin; Day 5 after SC 0.01 mg/kg): 27203 pM·min
Insulin AUC, AUClast (Insulin; Day 7 after SC 0.01 mg/kg): 28542 pM·min
duration of insulinotropic activity (Insulin; single SC injection of 0.01 mg/kg, relative to placebo, p<0.0001): at least 7 days

PEGylated GLP-1 compound of Formula I, wherein Xaa8 is Val; Xaa22 is Glu; Xaa33 is Ile; and Xaa46 is Cys: Formula I (SEQ ID NO: 1) peptide, one PEG molecule covalently attached to Cys45 and one to Cys46 (HVEGTFTSDVSSYLEEQAAKEFIAWLIKGGPSSGAPPPC(PEG)C(PEG); reading uncertain)
EC50 (human GLP-1 receptor): 0.22 ± 0.03 nM
